From US20220143148A1, “COMPOSITIONS AND METHODS FOR MODULATING CGRP SIGNALING TO REGULATE INTESTINAL INNATE LYMPHOID CELLS” (The Broad Institute, Inc., priority 2019, published 2022)

Tested on: small intestinal immune cells
Assay: Droplet-based scRNA-seq of small intestinal immune cells (LP and PP), OVA vs PBS, clustering and differential expression
Format: in vivo, mouse
Conditions: PP
Text: To comprehensively characterize small intestinal immune cells, Applicants generated scRNA-Seq profiles for 58,067 immune cells collected from lamina propria (LP) and Peyer's patch (PP) regions at steady state and after induction of a type 2 inflammatory reaction to ovalbumin (OVA) (Brandt et al., 2003) (FIGS. 1A and 8A). To ensure sufficient representation of rare cells, Applicants combined a normalization strategy—removing by flow sorting either a portion of IgD+ naïve B cells, which are the most abundant cell type in PPs, or all CD19+ and CD3+ T cells (FIG. 8B, Methods)—with profiling of a sufficiently large number of cells number (P>0.99 to recover at least 15 cells from each cluster, Methods) by massively parallel scRNA-seq (Haber et al., 2017) (Methods). Applicants obtained 36,797 and 21,270 high quality cells passing initial filtering (Methods) from PP and LP regions, respectively.
Overall, Applicants annotated 27 cell subsets across the two compartments, spanning T cells, B cells, ILCs, dendritic cells (DCs), myeloid cells and stromal cells, in frequencies ranging from 0.07% to 14%. Briefly, Applicants first partitioned the cells from the PP regions by unsupervised clustering (Methods) into 46 clusters, retained the 97% of cells that were robustly assigned cell identities in each cluster (Methods), assigned the cells from the LP regions to the 46 clusters using a classifier (Methods), and visualized the data with scvis (Ding et al., 2018), a deep generative model-based method (FIGS. 1B and 8C, Methods). Next, Applicants identified genes that were differentially expressed between the cells in each cluster and the remaining cells (Table 1, Methods), as well as between pairs of clusters (Table 2), to elucidate identities of similar cell types/states. Applicants excluded from downstream analysis clusters mostly consisting of contaminants from epithelium, likely doublets, or cells with a small number of Unique Molecular Identifiers (UMIs) (FIGS. 1C and 8D), or lacking distinct markers (Methods). Altogether, Applicants retained 27 clusters spanning 85% of the cells and each associated with distinct marker genes (FIG. 8E, Methods).
To induce allergic reaction to OVA, 6 to 7 weeks old mice were sensitized twice, two weeks apart, with 50 μg of OVA plus 1 mg of aluminum potassium sulfate adjuvant via intraperitoneal injection. Two weeks later, mice were orally administered with 50 mg of OVA on every other day for a total of five times. 1 μg of α-CGRP peptide was administered simultaneously when indicated. Mice were deprived of food for 3-4 hours in cages with wood chip bedding for limiting antigen degradation in the stomach before each intragastric challenge.
Isolation of cells from Peyer's patches (PPs). Peyer's patches (PPs) were carefully dissected from the small intestine under a stereo microscope using a fine scissor, pierced once with a fine forcep. Tissues were digested in freshly made digestion buffer (RPMI-1640 containing 100 μg/ml Liberase™ and 50 μg/ml DNase I at 37° C. on a roto-mixer. After 15 min, tissues were very gently mixed using a 1 ml pipette. The supernatant was collected and added to ice-cold MACS buffer (pH 7.4; PBS plus 2% FCS and 2 mM EDTA). Pre-warmed (37° C.) fresh digestion buffer was added to the remaining tissues. After rotation at 37° C. for 15 min, the mixture was vigorously mixed using a 1 ml pipette for 1 min. Supernatants from the two steps were combined and passed through 70 μm filters and stained for FACS (below).
Isolation of cells from the lamina propria (LP). The small intestines were opened longitudinally and washed in ice-cold PBS. For scRNA-seq, roughly 0.5 cm of fragments from each of the distal, middle and proximal regions without visible PPs were collected. Epithelial cells were dissociated by tissue rotation in pre-warmed (37° C.) PBS containing 10 mM EDTA at 37° C. for 15 min, followed by additional incubation on ice for 15 min. Tissues were then shaken vigorously. […]

B1: OVA (protein, UniProt P01012 2-386, looked up)
Ovalbumin: GSIGAASMEFCFDVFKELKVHHANENIFYCPIAIMSALAMVYLGAKDSTRTQINKVVRFDKLPGFGDSIEAQCGTSVNVHSSLRDILNQITKPNDVYSFSLASRLYAEERYPILPEYLQCVKELYRGGLEPINFQTAADQARELINSWVESQTNGIIRNVLQPSSVDSQTAMVLVNAIVFKGLWEKAFKDEDTQAMPFRVTEQESKPVQMMYQIGLFRVASMASEKMKILELPFASGTMSMLVLLPDEVSGLEQLESIINFEKLTEWTSSNVMEERKIKVYLPRMKMEEKYNLTSVLMAMGITDVFSSSANLSGISSAESLKISQAVHAAHAEINEAGREVVGSAEAGVDAASVSEEFRADHPFLFCIKHIATNAVLFFGRCVSP
Cluster ID 6
  5730508B09Rik percentage of expressing cells in OVA-treated group: 0.268
  Ablim1 percentage of expressing cells in OVA-treated group: 0.403
  Arid3a percentage of expressing cells in OVA-treated group: 0.212
  Arl4a percentage of expressing cells in OVA-treated group: 0.228
  Asph percentage of expressing cells in OVA-treated group: 0.377
  Cdkn2d percentage of expressing cells in OVA-treated group: 0.747
  Cfp percentage of expressing cells in OVA-treated group: 0.422
  Ctsz percentage of expressing cells in OVA-treated group: 0.97
  Fcer1g percentage of expressing cells in OVA-treated group: 0.94
  Gadd45b percentage of expressing cells in OVA-treated group: 0.342
  Gatad1 percentage of expressing cells in OVA-treated group: 0.34
  Gnai2 percentage of expressing cells in OVA-treated group: 0.932
  Grb2 percentage of expressing cells in OVA-treated group: 0.614
  H2-DMa percentage of expressing cells in OVA-treated group: 0.878
  Hnrnpa3 percentage of expressing cells in OVA-treated group: 0.851
  Irf4 percentage of expressing cells in OVA-treated group: 0.256
  Itgb7 percentage of expressing cells in OVA-treated group: 0.669
  Klf3 percentage of expressing cells in OVA-treated group: 0.125
  Klk1b27 percentage of expressing cells in OVA-treated group: 0.974
  Lifr percentage of expressing cells in OVA-treated group: 0.595
  Map3k1 percentage of expressing cells in OVA-treated group: 0.346
  Mark3 percentage of expressing cells in OVA-treated group: 0.139
  Net1 percentage of expressing cells in OVA-treated group: 0.53
  Orai1 percentage of expressing cells in OVA-treated group: 0.274
  Paqr5 percentage of expressing cells in OVA-treated group: 0.52
  Pde4b percentage of expressing cells in OVA-treated group: 0.177
  Pdia3 percentage of expressing cells in OVA-treated group: 0.844
  Pink1 percentage of expressing cells in OVA-treated group: 0.282
  Pten percentage of expressing cells in OVA-treated group: 0.429
  Ptprcap percentage of expressing cells in OVA-treated group: 0.941
  Rab7b percentage of expressing cells in OVA-treated group: 0.223
  Rsrp1 percentage of expressing cells in OVA-treated group: 0.754
  Sema4b percentage of expressing cells in OVA-treated group: 0.531
  Sertad1 percentage of expressing cells in OVA-treated group: 0.12
  Snrnp70 percentage of expressing cells in OVA-treated group: 0.43
  Tmem50a percentage of expressing cells in OVA-treated group: 0.854
  Tmem59 percentage of expressing cells in OVA-treated group: 0.833
  Tmem86a percentage of expressing cells in OVA-treated group: 0.204
  Tsix percentage of expressing cells in OVA-treated group: 0.23
  Txndc5 percentage of expressing cells in OVA-treated group: 0.699
Cluster ID 6, OVA vs PBS
  5730508B09Rik LN (average fold change): −0.218
  Ablim1 LN (average fold change): −0.197
  Arid3a LN (average fold change): −0.329
  Arl4a LN (average fold change): −0.276
  Asph LN (average fold change): −0.195
  Cdkn2d LN (average fold change): 0.244
  Cfp LN (average fold change): 0.312
  Ctsz LN (average fold change): 0.156
  Fcer1g LN (average fold change): 0.160
  Gadd45b LN (average fold change): −0.220
  Gatad1 LN (average fold change): −0.199
  Gnai2 LN (average fold change): −0.175
  Grb2 LN (average fold change): −0.222
  H2-DMa LN (average fold change): 0.190
  Hnrnpa3 LN (average fold change): 0.164
  Irf4 LN (average fold change): −0.248
  Itgb7 LN (average fold change): 0.238
  Klf3 LN (average fold change): −0.428
  Klk1b27 LN (average fold change): 0.170
  Lifr LN (average fold change): 0.265
  Map3k1 LN (average fold change): −0.227
  Mark3 LN (average fold change): −0.383
  Net1 LN (average fold change): 0.285
  Orai1 LN (average fold change): −0.245
  Paqr5 LN (average fold change): 0.279
  Pde4b LN (average fold change): −0.282
  Pdia3 LN (average fold change): 0.157
  Pink1 LN (average fold change): −0.291
  Pten LN (average fold change): −0.226
  Ptprcap LN (average fold change): 0.159
  Rab7b LN (average fold change): −0.285
  Rsrp1 LN (average fold change): 0.195
  Sema4b LN (average fold change): 0.221
  Sertad1 LN (average fold change): −0.396
  Snrnp70 LN (average fold change): 0.220
  Tmem50a LN (average fold change): 0.153
  Tmem59 LN (average fold change): 0.179
  Tmem86a LN (average fold change): 0.323
  Tsix LN (average fold change): −0.418
  Txndc5 LN (average fold change): 0.226
Cluster ID 7
  Ddit4 percentage of expressing cells in OVA-treated group: 0.359
  Dusp2 percentage of expressing cells in OVA-treated group: 0.465
  Fkbp5 percentage of expressing cells in OVA-treated group: 0.167
  Gabarapl2 percentage of expressing cells in OVA-treated group: 0.643
  Hsp90ab1 percentage of expressing cells in OVA-treated group: 0.834
  Il7r percentage of expressing cells in OVA-treated group: 0.191
  Lmo4 percentage of expressing cells in OVA-treated group: 0.204
  Matk percentage of expressing cells in OVA-treated group: 0.284
  Ptpn22 percentage of expressing cells in OVA-treated group: 0.53
  Svbp percentage of expressing cells in OVA-treated group: 0.246
  Tsc22d3 percentage of expressing cells in OVA-treated group: 0.565
  Txnip percentage of expressing cells in OVA-treated group: 0.415
  Zfp36l2 percentage of expressing cells in OVA-treated group: 0.757
Cluster ID 7, OVA vs PBS
  Ddit4 LN (average fold change): 0.463
  Dusp2 LN (average fold change): 0.542
  Fkbp5 LN (average fold change): 0.540
  Gabarapl2 LN (average fold change): 0.253
  Hsp90ab1 LN (average fold change): −0.450
  Il7r LN (average fold change): 0.526
  Lmo4 LN (average fold change): 0.711
  Matk LN (average fold change): 0.513
  Ptpn22 LN (average fold change): 0.340
  Svbp LN (average fold change): 0.261
  Tsc22d3 LN (average fold change): 1.003
  Txnip LN (average fold change): 0.551
  Zfp36l2 LN (average fold change): 1.239
Cluster ID 8
  AW112010 percentage of expressing cells in OVA-treated group: 0.995
  AY036118 percentage of expressing cells in OVA-treated group: 0.431
  Actr3 percentage of expressing cells in OVA-treated group: 0.771
  Alyref percentage of expressing cells in OVA-treated group: 0.137
  Amd1 percentage of expressing cells in OVA-treated group: 0.265
  Arf4 percentage of expressing cells in OVA-treated group: 0.478
  Arfrp1 percentage of expressing cells in OVA-treated group: 0.21
  Arl6ip1 percentage of expressing cells in OVA-treated group: 0.61
  Arl6ip5 percentage of expressing cells in OVA-treated group: 0.618
  Arpc5l percentage of expressing cells in OVA-treated group: 0.381
  Arrb2 percentage of expressing cells in OVA-treated group: 0.32
  Ash1l percentage of expressing cells in OVA-treated group: 0.235
  B2m percentage of expressing cells in OVA-treated group: 0.999
  Bcl2a1b percentage of expressing cells in OVA-treated group: 0.151
  Bcl2l11 percentage of expressing cells in OVA-treated group: 0.383
  Bcl2 percentage of expressing cells in OVA-treated group: 0.839
  Bhlhe40 percentage of expressing cells in OVA-treated group: 0.571
  Cap1 percentage of expressing cells in OVA-treated group: 0.695
  Ccr2 percentage of expressing cells in OVA-treated group: 0.536
  Cd47 percentage of expressing cells in OVA-treated group: 0.833
  Cd69 percentage of expressing cells in OVA-treated group: 0.306
  Cd74 percentage of expressing cells in OVA-treated group: 0.448
  Cdk2ap1 percentage of expressing cells in OVA-treated group: 0.132
  Cdkn1a percentage of expressing cells in OVA-treated group: 0.084
  Cdv3 percentage of expressing cells in OVA-treated group: 0.255
  Cks2 percentage of expressing cells in OVA-treated group: 0.108
  Clec2d percentage of expressing cells in OVA-treated group: 0.289
  Coq10b percentage of expressing cells in OVA-treated group: 0.305
  Crem percentage of expressing cells in OVA-treated group: 0.371
  Csrp1 percentage of expressing cells in OVA-treated group: 0.129
  Ctla2a percentage of expressing cells in OVA-treated group: 0.74
  Cxcr4 percentage of expressing cells in OVA-treated group: 0.577
  Ddx21 percentage of expressing cells in OVA-treated group: 0.248
  Defa24 percentage of expressing cells in OVA-treated group: 0.044
  Dgat1 percentage of expressing cells in OVA-treated group: 0.175
  Dusp1 percentage of expressing cells in OVA-treated group: 0.614
  Eef2 percentage of expressing cells in OVA-treated group: 0.957
  Egr1 percentage of expressing cells in OVA-treated group: 0.156
  Eif4a2 percentage of expressing cells in OVA-treated group: 0.622
  Emb percentage of expressing cells in OVA-treated group: 0.506
  Fam105a percentage of expressing cells in OVA-treated group: 0.376
  Fasl percentage of expressing cells in OVA-treated group: 0.598
  Fcer1g percentage of expressing cells in OVA-treated group: 0.927
